Test results from US20210324374, “COMPOSITIONS AND METHODS FOR SCREENING APTAMERS” (Chan Zuckerberg Biohub, Inc., published 2021).

Biological target: VEGF (vascular endothelial growth factor) (UniProt P15692-4 P15692-4:27-191)
Assay: N2A2 flow-cell fluorescence, natural DNA
Conditions: tags: Dylight 650 NHS labelled; R&D Systems; chain copies: 2
Description: We used N2A2 to measure the VEGF binding affinity of all sequences in these pools simultaneously. We performed three separate experiments: 1) VEGF binding to the natural DNA pools, 2) VEGF binding to non-natural DNA modified with tryptophan, and 3) VEGF binding to non-natural DNA modified with tyrosine. In addition to the six aptamer pools described above (R0-R5), we included three other DNA sequences on the flow cell for each experiment: (1) a known “fiducial mark” sequence with a fluorescently-labeled complement for intensity calibration, (2) a “positive control” sequence based on a published aptamer known to bind to VEGF, and (3) a “negative control” sequence known not to bind to VEGF. The same input DNA stocks and labeled VEGF protein were used for all three experiments, but new sequencing cartridges and flow cells were used for each separate experiment. Other details of experimental setup of the sequencing cartridge, protein titrations, and software and hardware modifications have previously been described in the provided grant document and manuscript. VEGF protein was labeled with Dylight647 fluorophore to enable imaging on the N2A2.

Chain of VEGF (vascular endothelial growth factor) (P15692 other isoform, or with tags, fused parts or gaps): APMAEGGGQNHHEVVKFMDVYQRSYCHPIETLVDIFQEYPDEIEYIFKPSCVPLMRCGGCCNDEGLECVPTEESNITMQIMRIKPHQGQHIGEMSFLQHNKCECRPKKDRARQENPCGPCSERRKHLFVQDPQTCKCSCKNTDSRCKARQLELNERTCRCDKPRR

B1: K SL2-B positive control (ssDNA)
DNA: AGCAGCACAGAGGTCAGATGAATTGGGCCCGTCCGTATGGTGGGTCCTATGCGTGCTACCGTGAA
B1: binds.
